Reference: article PMC7673487 (International Journal of Nanomedicine, 2020)

Columns and labels:
[1] = target: T1, recombinant human NRP-1 protein (human, UniProt O14786 22-856); assay: SPR
T1 sequence (looked up): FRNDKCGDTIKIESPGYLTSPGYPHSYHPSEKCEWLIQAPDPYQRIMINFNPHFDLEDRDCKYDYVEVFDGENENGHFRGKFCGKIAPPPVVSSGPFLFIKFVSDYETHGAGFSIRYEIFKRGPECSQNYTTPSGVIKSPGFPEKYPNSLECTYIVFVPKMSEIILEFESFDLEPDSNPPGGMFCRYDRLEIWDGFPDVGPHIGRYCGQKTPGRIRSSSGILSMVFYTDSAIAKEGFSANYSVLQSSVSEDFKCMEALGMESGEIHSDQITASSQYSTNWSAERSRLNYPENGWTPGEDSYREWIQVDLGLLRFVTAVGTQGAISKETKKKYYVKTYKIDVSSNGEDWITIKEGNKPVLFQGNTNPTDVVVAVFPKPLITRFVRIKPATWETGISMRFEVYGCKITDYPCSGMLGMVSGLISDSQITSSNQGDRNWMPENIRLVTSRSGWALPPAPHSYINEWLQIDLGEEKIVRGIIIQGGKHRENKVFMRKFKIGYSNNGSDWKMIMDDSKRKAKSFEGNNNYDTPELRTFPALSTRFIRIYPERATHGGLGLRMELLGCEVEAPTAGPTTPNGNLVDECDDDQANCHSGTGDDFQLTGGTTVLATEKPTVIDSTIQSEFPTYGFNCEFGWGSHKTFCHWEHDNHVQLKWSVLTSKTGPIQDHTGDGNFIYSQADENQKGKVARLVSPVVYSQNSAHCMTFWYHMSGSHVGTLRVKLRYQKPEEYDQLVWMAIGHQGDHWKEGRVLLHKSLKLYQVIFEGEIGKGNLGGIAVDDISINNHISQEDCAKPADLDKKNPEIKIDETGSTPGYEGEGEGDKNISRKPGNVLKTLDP

[2] = target: T2, recombinant rat NRP-1 protein (rat, UniProt Q9QWJ9 22-855); assay: SPR
T2 sequence (looked up): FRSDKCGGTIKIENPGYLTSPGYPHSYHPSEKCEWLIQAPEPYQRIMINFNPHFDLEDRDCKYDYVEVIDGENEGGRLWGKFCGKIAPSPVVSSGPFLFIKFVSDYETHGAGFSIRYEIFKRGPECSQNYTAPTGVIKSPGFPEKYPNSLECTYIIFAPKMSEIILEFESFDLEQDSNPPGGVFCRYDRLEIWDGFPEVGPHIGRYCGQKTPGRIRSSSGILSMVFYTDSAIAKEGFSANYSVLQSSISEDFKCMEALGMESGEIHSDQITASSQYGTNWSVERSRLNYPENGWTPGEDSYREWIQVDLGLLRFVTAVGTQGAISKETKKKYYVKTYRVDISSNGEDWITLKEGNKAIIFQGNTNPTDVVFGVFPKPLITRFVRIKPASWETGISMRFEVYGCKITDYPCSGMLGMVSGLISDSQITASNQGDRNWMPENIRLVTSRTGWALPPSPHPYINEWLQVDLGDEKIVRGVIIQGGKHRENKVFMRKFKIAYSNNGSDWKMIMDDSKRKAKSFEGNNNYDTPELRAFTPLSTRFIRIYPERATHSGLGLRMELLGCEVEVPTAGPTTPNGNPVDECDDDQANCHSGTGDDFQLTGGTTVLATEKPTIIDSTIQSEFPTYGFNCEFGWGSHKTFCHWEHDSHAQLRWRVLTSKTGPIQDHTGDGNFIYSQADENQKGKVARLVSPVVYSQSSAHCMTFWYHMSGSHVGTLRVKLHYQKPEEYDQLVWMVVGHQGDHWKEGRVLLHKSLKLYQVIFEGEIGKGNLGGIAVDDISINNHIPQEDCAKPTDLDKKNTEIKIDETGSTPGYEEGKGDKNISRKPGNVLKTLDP

B1: KDKPPR peptide (peptide)
peptide: KDKPPR
[1]
  Kd: 0.5 µM
[2]
  Kd: 8.7 µM
